# In patent US20200291118A1 (HANX BIOPHARMACEUTICS, published 2020):
# Assays:
# hPD-1-his antigen [1] = biological target: T1, hPD-1-his antigen (human, UniProt Q15116 25-167, limits assumed); assay: ELISA on coated hPD-1-his; antibody 1:5 of 2 µg/ml
# T1 construct: Coating antigen; not shown: his tag
# Protocol: (§1) An ELISA plate was coated with hPD-1-his antigen at a concentration of 0.25 μg/ml (100 μl per well) by incubation at 4° C. overnight.
# (§2) The ELISA plate coated with the hPD-1-his antigen was blocked with 1% BSA (diluted in the PBS buffer) at 37° C. for 2 hours, and then washed with 1×PBST buffer containing 1% Tween-20 for three times, with gently patting to dryness.
# (§3) The absorbance of solution in each well was measured on a microplate reader under a wavelength of 450 nm.
# hPD-1-hIgGFc antigen [2] = biological target: T2, hPD-1-hIgGFc antigen (human, UniProt Q15116 25-167, limits assumed); assay: competition ELISA on coated hPD-1-hIgGFc; competitor PD-L2-his tag
# T2 construct: not shown: human IgG Fc
# T2 sequence (Q15116 25-167 limits assumed): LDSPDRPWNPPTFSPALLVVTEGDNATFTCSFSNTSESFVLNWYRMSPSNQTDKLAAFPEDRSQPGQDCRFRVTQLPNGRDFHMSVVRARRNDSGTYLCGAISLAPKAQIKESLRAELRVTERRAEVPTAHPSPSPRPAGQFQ
# Protocol: A 96-well ELISA plate was coated with hPD-1-hIgGFc antigen at a concentration of 1.0 μg/ml (100 μl per well) by incubation at 4° C. overnight.
# After the 96-well ELISA plate was washed with the PBST buffer for five times and gently patted to dryness, HRP conjugated anti-his tag mouse monoclonal antibody as a secondary antibody in 1:750 dilution (50 μl per well) was added for incubation at 37° C. for 1 hour.
# hPD-1-hIgGFc antigen [3] = biological target: T2, hPD-1-hIgGFc antigen; assay: competition ELISA on coated hPD-1-hIgGFc; competitor PD-L1-mIgG2aFc
# Protocol: A 96-well ELISA plate was coated with hPD-1-hIgGFc antigen at a concentration of 0.5 μg/ml (50 μl per well) by incubation at 4° C. overnight.
# hPD-1-his antigen [4] = biological target: T1, hPD-1-his antigen; assay: ELISA on coated hPD-1-his
# Protocol: as §1, §2, §3
# T1 sequence (Q15116 25-167 limits assumed): as above
binder,measurement,setting,value
"humanized antibody H8 (anti-PD-1 IgG antibody) (antibody, V domains shown, also called HX008; HX008 18A10 antibody) VH: EVQLVQSGGGLVQPGGSLKLSCAASGFTFSSYGMSWVRQAPGKGLDWVATISGGGRDTYYPDSVKGRFTISRDNSKNNLYLQMNSLRAEDTALYYCARQKGEAWFAYWGQGTLVTVSA VL: not shown",absorbance at 450 nm,hPD-1-his antigen [1],1.76
same,IC50,hPD-1-hIgGFc antigen [2],2.7 nM
same,IC50,hPD-1-hIgGFc antigen [3],1 nM
same,EC50,hPD-1-his antigen [4],0.05 nM
